Experimental findings from article PMC3961559 are described below.

Data set [1] addresses T1, human alpha-thrombin (Homo sapiens, UniProt P00734;P00734 328-363;364-622). The experiment in a line: competition.
Data set [2] addresses T1, human alpha-thrombin. The experiment in a line: competition. This is another data set of the same source.

Where two headings read alike, the source gives them in different places.

B1: thrombin binding aptamer (TBA) oligo (structured_DNA)
DNA: GGTTGGTGTGGTTGG
Consider B1, for which the binding result with human alpha-thrombin [1] is on record as “binds”.

B2: non-specific oligonucleotide (ssDNA)
DNA: GGCGTAACTGATCGATCGT
In the case of B2, the binding result with human alpha-thrombin [2] is on record as “no binding”.
